Measured values as given in patent US20240343771A1 (Chugai, published 2024).

T1: human IL-12 (human, UniProt P29460 23-328; P29459 23-219)
T1 construct: also called Interleukin-12
T1 sequence 1: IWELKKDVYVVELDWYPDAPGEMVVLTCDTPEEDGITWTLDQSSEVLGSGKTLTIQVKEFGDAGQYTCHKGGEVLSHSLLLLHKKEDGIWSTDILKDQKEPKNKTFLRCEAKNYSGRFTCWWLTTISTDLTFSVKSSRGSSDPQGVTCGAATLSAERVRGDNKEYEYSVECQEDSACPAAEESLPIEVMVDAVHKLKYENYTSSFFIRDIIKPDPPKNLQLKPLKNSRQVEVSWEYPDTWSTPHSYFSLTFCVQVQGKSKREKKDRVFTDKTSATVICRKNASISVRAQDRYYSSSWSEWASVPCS
T1 sequence 2: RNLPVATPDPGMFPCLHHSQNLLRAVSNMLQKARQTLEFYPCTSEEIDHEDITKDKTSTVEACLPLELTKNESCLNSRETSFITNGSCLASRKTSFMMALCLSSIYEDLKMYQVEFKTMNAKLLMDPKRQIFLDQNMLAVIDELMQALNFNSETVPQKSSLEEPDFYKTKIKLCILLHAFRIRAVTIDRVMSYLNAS


Each binder was assayed against T1, human IL-12 (assay: SPR (Biacore T200), 37 C, pH 7.4; captured antibody, IL-12 analyte).
Procedure: The affinity of anti-IL-12 antibodies binding to human IL-12 at pH 7.4 were determined at 37 degrees C. using Biacore T200 instrument (Cytiva). Anti-human Fc antibody (Cytiva) was immobilized onto all flow cells (FCs) of a CM4 sensor chip using amine coupling kit (Cytiva). All antibodies and analytes were prepared in ACES pH 7.4 containing 20 mM ACES, 150 mM NaCl, 0.05% Tween 20, 0.005% NaN₃. Each antibody was captured onto the sensor surface by anti-human Fc antibody. Antibody capture levels were aimed at 50 response unit (RU). 5 nM of human IL-12 were injected as analyte, followed by dissociation. Sensor surface was regenerated each cycle with 3M MgCl₂. […] Based on the results in Table 9, it is observed that binding kinetics of anti-IL-12 antibody AbI variants towards IL-12 were not drastically changed compared to control (−/−).

Binder	Kd
Anti-IL-12 antibody Ab1 (Ab101H-12aa-C8/Ab102L-SK1) (antibody, Homodimer of light chain and heavy chain; also called -/- (control)) heavy: not shown light: DIVMTQSPLSLPVTPGEPASISCRASQSISINLHWYQQKPGQAPRLLIYFASQSISGVPSRFSGSGSGTDFTLTISSLQPEDFATYYCQQSNSFPLTFGQGTKVEIKRTVAAPSVFIFPPSDEQLKSGTASVVCLLNNFYPREAKVQWKVDNALQSGNSQESVTEQDSKDSTYSLSSTLTLSKADYEKHKVYACEVTHQGLSSPVTKSFNRGEC	0.948 nM
Anti-IL-12 antibody Ab1 variant -/F98M VL (antibody, Ab1 with VH/VL interface substitutions; Kabat numbering) heavy: not shown light: DIVMTQSPLSLPVTPGEPASISCRASQSISINLHWYQQKPGQAPRLLIYFASQSISGVPSRFSGSGSGTDFTLTISSLQPEDFATYYCQQSNSFPLTMGQGTKVEIKRTVAAPSVFIFPPSDEQLKSGTASVVCLLNNFYPREAKVQWKVDNALQSGNSQESVTEQDSKDSTYSLSSTLTLSKADYEKHKVYACEVTHQGLSSPVTKSFNRGEC	0.685 nM
Anti-IL-12 antibody Ab1 variant -/Y49A VL (antibody, V domains shown, Ab1 with VH/VL interface substitutions; Kabat numbering) VH: QVQLVQSGAEVKKPGSSVKVSCKASGGTFSDYYLHWVRQAPGQGLEWMGWIDPENGDTEYAPKFQGRVTITADESTSTAYMELSSLRSEDTAVYYCARNKELRYFDVWGQGTLVTVSS VL: DIVMTQSPLSLPVTPGEPASISCRASQSISINLHWYQQKPGQAPRLLIAFASQSISGVPSRFSGSGSGTDFTLTISSLQPEDFATYYCQQSNSFPLTFGQGTKVEIKR	1.74 nM
Anti-IL-12 antibody Ab1 variant -/P44A VL (antibody, V domains shown, Ab1 with VH/VL interface substitutions; Kabat numbering) VH: QVQLVQSGAEVKKPGSSVKVSCKASGGTFSDYYLHWVRQAPGQGLEWMGWIDPENGDTEYAPKFQGRVTITADESTSTAYMELSSLRSEDTAVYYCARNKELRYFDVWGQGTLVTVSS VL: DIVMTQSPLSLPVTPGEPASISCRASQSISINLHWYQQKPGQAARLLIYFASQSISGVPSRFSGSGSGTDFTLTISSLQPEDFATYYCQQSNSFPLTFGQGTKVEIKR	0.858 nM
Anti-IL-12 antibody Ab1 variant -/A43Q VL (antibody, V domains shown, Ab1 with VH/VL interface substitutions; Kabat numbering) VH: QVQLVQSGAEVKKPGSSVKVSCKASGGTFSDYYLHWVRQAPGQGLEWMGWIDPENGDTEYAPKFQGRVTITADESTSTAYMELSSLRSEDTAVYYCARNKELRYFDVWGQGTLVTVSS VL: DIVMTQSPLSLPVTPGEPASISCRASQSISINLHWYQQKPGQQPRLLIYFASQSISGVPSRFSGSGSGTDFTLTISSLQPEDFATYYCQQSNSFPLTFGQGTKVEIKR	0.937 nM
Anti-IL-12 antibody Ab1 variant -/P44S VL (antibody, V domains shown, Ab1 with VH/VL interface substitutions; Kabat numbering) VH: QVQLVQSGAEVKKPGSSVKVSCKASGGTFSDYYLHWVRQAPGQGLEWMGWIDPENGDTEYAPKFQGRVTITADESTSTAYMELSSLRSEDTAVYYCARNKELRYFDVWGQGTLVTVSS VL: DIVMTQSPLSLPVTPGEPASISCRASQSISINLHWYQQKPGQASRLLIYFASQSISGVPSRFSGSGSGTDFTLTISSLQPEDFATYYCQQSNSFPLTFGQGTKVEIKR	1.17 nM
Anti-IL-12 antibody Ab1 variant -/F98A VL (antibody, Ab1 with VH/VL interface substitutions; Kabat numbering) heavy: not shown light: DIVMTQSPLSLPVTPGEPASISCRASQSISINLHWYQQKPGQAPRLLIYFASQSISGVPSRFSGSGSGTDFTLTISSLQPEDFATYYCQQSNSFPLTAGQGTKVEIKRTVAAPSVFIFPPSDEQLKSGTASVVCLLNNFYPREAKVQWKVDNALQSGNSQESVTEQDSKDSTYSLSSTLTLSKADYEKHKVYACEVTHQGLSSPVTKSFNRGEC	1.03 nM
Anti-IL-12 antibody Ab1 variant -/Y87L VL (antibody, V domains shown, Ab1 with VH/VL interface substitutions; Kabat numbering) VH: QVQLVQSGAEVKKPGSSVKVSCKASGGTFSDYYLHWVRQAPGQGLEWMGWIDPENGDTEYAPKFQGRVTITADESTSTAYMELSSLRSEDTAVYYCARNKELRYFDVWGQGTLVTVSS VL: DIVMTQSPLSLPVTPGEPASISCRASQSISINLHWYQQKPGQAPRLLIYFASQSISGVPSRFSGSGSGTDFTLTISSLQPEDFATYLCQQSNSFPLTFGQGTKVEIKR	1.46 nM
Anti-IL-12 antibody Ab1 variant -/F98L VL (antibody, Ab1 with VH/VL interface substitutions; Kabat numbering) heavy: not shown light: DIVMTQSPLSLPVTPGEPASISCRASQSISINLHWYQQKPGQAPRLLIYFASQSISGVPSRFSGSGSGTDFTLTISSLQPEDFATYYCQQSNSFPLTLGQGTKVEIKRTVAAPSVFIFPPSDEQLKSGTASVVCLLNNFYPREAKVQWKVDNALQSGNSQESVTEQDSKDSTYSLSSTLTLSKADYEKHKVYACEVTHQGLSSPVTKSFNRGEC	0.499 nM
Anti-IL-12 antibody Ab1 variant -/P44Q VL (antibody, V domains shown, Ab1 with VH/VL interface substitutions; Kabat numbering) VH: QVQLVQSGAEVKKPGSSVKVSCKASGGTFSDYYLHWVRQAPGQGLEWMGWIDPENGDTEYAPKFQGRVTITADESTSTAYMELSSLRSEDTAVYYCARNKELRYFDVWGQGTLVTVSS VL: DIVMTQSPLSLPVTPGEPASISCRASQSISINLHWYQQKPGQAQRLLIYFASQSISGVPSRFSGSGSGTDFTLTISSLQPEDFATYYCQQSNSFPLTFGQGTKVEIKR	0.94 nM
Anti-IL-12 antibody Ab1 variant -/L46Q VL (antibody, V domains shown, Ab1 with VH/VL interface substitutions; Kabat numbering) VH: QVQLVQSGAEVKKPGSSVKVSCKASGGTFSDYYLHWVRQAPGQGLEWMGWIDPENGDTEYAPKFQGRVTITADESTSTAYMELSSLRSEDTAVYYCARNKELRYFDVWGQGTLVTVSS VL: DIVMTQSPLSLPVTPGEPASISCRASQSISINLHWYQQKPGQAPRQLIYFASQSISGVPSRFSGSGSGTDFTLTISSLQPEDFATYYCQQSNSFPLTFGQGTKVEIKR	1.62 nM
Anti-IL-12 antibody Ab1 variant -/Y87M VL (antibody, V domains shown, Ab1 with VH/VL interface substitutions; Kabat numbering) VH: QVQLVQSGAEVKKPGSSVKVSCKASGGTFSDYYLHWVRQAPGQGLEWMGWIDPENGDTEYAPKFQGRVTITADESTSTAYMELSSLRSEDTAVYYCARNKELRYFDVWGQGTLVTVSS VL: DIVMTQSPLSLPVTPGEPASISCRASQSISINLHWYQQKPGQAPRLLIYFASQSISGVPSRFSGSGSGTDFTLTISSLQPEDFATYMCQQSNSFPLTFGQGTKVEIKR	1.22 nM
Anti-IL-12 antibody Ab1 variant F100aI VH/- (antibody, name in Kabat numbering, V domains shown, Ab1 with a CDR substitution at the VH/VL interface; Kabat numbering) VH: QVQLVQSGAEVKKPGSSVKVSCKASGGTFSDYYLHWVRQAPGQGLEWMGWIDPENGDTEYAPKFQGRVTITADESTSTAYMELSSLRSEDTAVYYCARNKELRYIDVWGQGTLVTVSS VL: DIVMTQSPLSLPVTPGEPASISCRASQSISINLHWYQQKPGQAPRLLIYFASQSISGVPSRFSGSGSGTDFTLTISSLQPEDFATYYCQQSNSFPLTFGQGTKVEIKR	0.571 nM
Anti-IL-12 antibody Ab1 variant -/Y87A VL (antibody, V domains shown, Ab1 with VH/VL interface substitutions; Kabat numbering) VH: QVQLVQSGAEVKKPGSSVKVSCKASGGTFSDYYLHWVRQAPGQGLEWMGWIDPENGDTEYAPKFQGRVTITADESTSTAYMELSSLRSEDTAVYYCARNKELRYFDVWGQGTLVTVSS VL: DIVMTQSPLSLPVTPGEPASISCRASQSISINLHWYQQKPGQAPRLLIYFASQSISGVPSRFSGSGSGTDFTLTISSLQPEDFATYACQQSNSFPLTFGQGTKVEIKR	1.21 nM
Anti-IL-12 antibody Ab1 variant F100aI VH/A43Q, Y49A VL (antibody, name in Kabat numbering, V domains shown, Ab1 with VH/VL interface substitutions; Kabat numbering) VH: QVQLVQSGAEVKKPGSSVKVSCKASGGTFSDYYLHWVRQAPGQGLEWMGWIDPENGDTEYAPKFQGRVTITADESTSTAYMELSSLRSEDTAVYYCARNKELRYIDVWGQGTLVTVSS VL: DIVMTQSPLSLPVTPGEPASISCRASQSISINLHWYQQKPGQQPRLLIAFASQSISGVPSRFSGSGSGTDFTLTISSLQPEDFATYYCQQSNSFPLTFGQGTKVEIKR	1.33 nM
Anti-IL-12 antibody Ab1 variant F100aI VH/A43Q, L46Q, Y49A VL (antibody, name in Kabat numbering, V domains shown, Ab1 with VH/VL interface substitutions; Kabat numbering) VH: QVQLVQSGAEVKKPGSSVKVSCKASGGTFSDYYLHWVRQAPGQGLEWMGWIDPENGDTEYAPKFQGRVTITADESTSTAYMELSSLRSEDTAVYYCARNKELRYIDVWGQGTLVTVSS VL: DIVMTQSPLSLPVTPGEPASISCRASQSISINLHWYQQKPGQQPRQLIAFASQSISGVPSRFSGSGSGTDFTLTISSLQPEDFATYYCQQSNSFPLTFGQGTKVEIKR	3.56 nM
